Reference: publication PMC2756588

T1: Abp1, P15891
T1 sequence (P15891 535-592, looked up): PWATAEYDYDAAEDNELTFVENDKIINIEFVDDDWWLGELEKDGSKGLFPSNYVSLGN

T2: Bbc1, P47068
T2 sequence (P47068 1-78, looked up): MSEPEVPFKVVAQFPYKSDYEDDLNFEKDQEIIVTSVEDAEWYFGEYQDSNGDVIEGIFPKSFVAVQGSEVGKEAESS

T3: Boi1, P38041
T3 sequence (P38041 1-86, looked up): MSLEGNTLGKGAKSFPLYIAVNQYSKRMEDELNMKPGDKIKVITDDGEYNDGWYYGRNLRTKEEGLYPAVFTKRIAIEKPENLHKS

T4: Boi2, P39969
T4 sequence (P39969 32-116, looked up): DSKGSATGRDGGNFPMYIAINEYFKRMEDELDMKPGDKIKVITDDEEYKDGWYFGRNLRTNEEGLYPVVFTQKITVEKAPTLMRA

T5: Bud14, P27637
T5 sequence (P27637 247-328, looked up): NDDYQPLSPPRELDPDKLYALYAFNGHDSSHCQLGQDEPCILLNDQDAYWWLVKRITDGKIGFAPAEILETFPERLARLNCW

T6: Bzz1-1, P38822
T6 sequence (P38822 478-572, looked up): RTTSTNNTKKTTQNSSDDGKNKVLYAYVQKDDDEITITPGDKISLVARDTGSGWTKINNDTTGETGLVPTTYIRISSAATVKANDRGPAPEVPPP

T7: Bzz1-2, P38822
T7 sequence (P38822 568-633, looked up): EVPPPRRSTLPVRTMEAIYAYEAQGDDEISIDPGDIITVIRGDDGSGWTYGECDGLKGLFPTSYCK

T8: Cdc25, P04821
T8 sequence (P04821 50-136, looked up): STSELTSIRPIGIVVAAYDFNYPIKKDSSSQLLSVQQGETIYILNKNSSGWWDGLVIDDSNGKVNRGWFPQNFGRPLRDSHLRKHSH

T9: Cyk3, Q07533
T9 sequence (Q07533 1-83, looked up): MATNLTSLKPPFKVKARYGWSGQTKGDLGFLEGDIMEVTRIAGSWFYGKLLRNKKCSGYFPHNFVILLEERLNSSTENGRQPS

T10: Fus1, P11710
T10 sequence (P11710 432-512, looked up): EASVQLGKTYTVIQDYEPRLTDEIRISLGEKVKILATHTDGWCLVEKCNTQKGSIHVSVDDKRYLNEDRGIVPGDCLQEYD

T11: Hof1, Q05080
T11 sequence (Q05080 590-669, looked up): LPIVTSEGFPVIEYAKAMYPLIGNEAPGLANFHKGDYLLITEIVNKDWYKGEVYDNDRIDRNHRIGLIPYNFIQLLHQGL

T12: Hse1, P38753
T12 sequence (P38753 208-285, looked up): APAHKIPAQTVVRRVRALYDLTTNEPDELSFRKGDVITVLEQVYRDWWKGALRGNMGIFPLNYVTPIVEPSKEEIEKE

T13: Lsb1, P53281
T13 sequence (P53281 45-122, looked up): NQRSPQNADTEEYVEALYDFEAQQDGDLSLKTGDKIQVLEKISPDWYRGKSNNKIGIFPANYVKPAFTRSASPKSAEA

T14: Lsb3, P43603
T14 sequence (P43603 385-451, looked up): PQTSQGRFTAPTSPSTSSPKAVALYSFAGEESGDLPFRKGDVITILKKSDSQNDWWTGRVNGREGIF

T15: Lsb4, P32793
T15 sequence (P32793 402-468, looked up): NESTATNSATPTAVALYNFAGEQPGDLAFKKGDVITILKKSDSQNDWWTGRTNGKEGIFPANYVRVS

T16: Myo5, Q04439
T16 sequence (Q04439 1072-1160, looked up): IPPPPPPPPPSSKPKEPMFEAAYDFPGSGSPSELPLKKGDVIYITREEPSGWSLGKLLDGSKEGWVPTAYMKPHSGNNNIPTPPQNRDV

T17: Nbp2, Q12163
T17 sequence (Q12163 103-180, looked up): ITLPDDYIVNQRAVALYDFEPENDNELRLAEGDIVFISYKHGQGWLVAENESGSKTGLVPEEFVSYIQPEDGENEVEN

T18: Pex13, P80667
T18 sequence (P80667 295-386, looked up): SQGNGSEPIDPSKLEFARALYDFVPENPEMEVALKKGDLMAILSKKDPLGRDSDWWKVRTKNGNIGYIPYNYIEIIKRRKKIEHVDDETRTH

T19: Pin3, Q06449
T19 sequence (Q06449 53-122, looked up): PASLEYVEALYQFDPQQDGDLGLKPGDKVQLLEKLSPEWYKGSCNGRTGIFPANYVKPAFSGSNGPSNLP

T20: Sla1-2, P32790
T20 sequence (P32790 60-140, looked up): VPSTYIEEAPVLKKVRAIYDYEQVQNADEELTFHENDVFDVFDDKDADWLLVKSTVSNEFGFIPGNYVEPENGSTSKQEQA

T21: Sla1-3, P32790
T21 sequence (P32790 344-424, looked up): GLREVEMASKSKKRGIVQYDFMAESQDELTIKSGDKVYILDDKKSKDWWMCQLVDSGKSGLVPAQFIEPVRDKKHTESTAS


What follows are binders tested against T1, Abp1, P15891 (assay: SPOT array). Settings: median of control spots 935.

SPOT intensity	Binder
339	KDKSRPPRPPPKPLH
673	ERPKRRAPPPVPKKP
0	PHNPSPFFPPPDFND

What follows are binders tested against T2, Bbc1, P47068 (assay: SPOT array). Settings: median of control spots 796.

SPOT intensity	Binder
4	KDKSRPPRPPPKPLH
282	ERPKRRAPPPVPKKP
0	PHNPSPFFPPPDFND

These binders were tested against Bem1-1, P29366 (assay: SPOT array). Settings: median of control spots 4282.
Sequence of Bem1-1, P29366 (P29366 55-141): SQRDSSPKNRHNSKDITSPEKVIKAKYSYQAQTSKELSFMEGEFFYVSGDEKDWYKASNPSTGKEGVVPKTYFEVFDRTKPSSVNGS

SPOT intensity	Binder
0	KDKSRPPRPPPKPLH
0	ERPKRRAPPPVPKKP
0	PHNPSPFFPPPDFND

Each binder was assayed against Bem1-2, P29366 (assay: SPOT array). Settings: median of control spots 4347.
Sequence of Bem1-2, P29366 (P29366 139-227): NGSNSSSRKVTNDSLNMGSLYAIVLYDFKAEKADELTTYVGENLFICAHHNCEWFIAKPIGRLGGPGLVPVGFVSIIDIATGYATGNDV

SPOT intensity	Binder
0	KDKSRPPRPPPKPLH
279	ERPKRRAPPPVPKKP
0	PHNPSPFFPPPDFND

The binders below were run against T3, Boi1, P38041 (assay: SPOT array). Settings: median of control spots 1162.

SPOT intensity	Binder
2	KDKSRPPRPPPKPLH
0	ERPKRRAPPPVPKKP
0	PHNPSPFFPPPDFND

The binders below were run against T4, Boi2, P39969 (assay: SPOT array). Settings: median of control spots 1161.

SPOT intensity	Binder
0	KDKSRPPRPPPKPLH
0	ERPKRRAPPPVPKKP
0	PHNPSPFFPPPDFND

These binders were tested against T5, Bud14, P27637 (assay: SPOT array). Settings: median of control spots 956.

SPOT intensity	Binder
0	KDKSRPPRPPPKPLH
0	ERPKRRAPPPVPKKP
0	PHNPSPFFPPPDFND

What follows are binders tested against T6, Bzz1-1, P38822 (assay: SPOT array). Settings: median of control spots 4446.

SPOT intensity	Binder
50	KDKSRPPRPPPKPLH
160	ERPKRRAPPPVPKKP
0	PHNPSPFFPPPDFND

Each binder was assayed against T7, Bzz1-2, P38822 (assay: SPOT array). Settings: median of control spots 4538.

SPOT intensity	Binder
0	KDKSRPPRPPPKPLH
791	ERPKRRAPPPVPKKP
0	PHNPSPFFPPPDFND

Each binder was assayed against T8, Cdc25, P04821 (assay: SPOT array). Settings: median of control spots 969.

SPOT intensity	Binder
2	KDKSRPPRPPPKPLH
4	ERPKRRAPPPVPKKP
0	PHNPSPFFPPPDFND

These binders were tested against T9, Cyk3, Q07533 (assay: SPOT array). Settings: median of control spots 1451.

SPOT intensity	Binder
0	KDKSRPPRPPPKPLH
0	ERPKRRAPPPVPKKP
0	PHNPSPFFPPPDFND

These binders were tested against T10, Fus1, P11710 (assay: SPOT array). Settings: median of control spots 1200.

SPOT intensity	Binder
0	KDKSRPPRPPPKPLH
0	ERPKRRAPPPVPKKP
0	PHNPSPFFPPPDFND

These binders were tested against GST (assay: SPOT array). Settings: median of control spots 978.

SPOT intensity	Binder
0	KDKSRPPRPPPKPLH
0	ERPKRRAPPPVPKKP
0	PHNPSPFFPPPDFND

What follows are binders tested against T11, Hof1, Q05080 (assay: SPOT array). Settings: median of control spots 4086.

SPOT intensity	Binder
0	KDKSRPPRPPPKPLH
0	ERPKRRAPPPVPKKP
0	PHNPSPFFPPPDFND

These binders were tested against T12, Hse1, P38753 (assay: SPOT array). Settings: median of control spots 1727.

SPOT intensity	Binder
20	KDKSRPPRPPPKPLH
57	ERPKRRAPPPVPKKP
0	PHNPSPFFPPPDFND

What follows are binders tested against T13, Lsb1, P53281 (assay: SPOT array). Settings: median of control spots 388.

SPOT intensity	Binder
7	KDKSRPPRPPPKPLH
326	ERPKRRAPPPVPKKP
0	PHNPSPFFPPPDFND

What follows are binders tested against T14, Lsb3, P43603 (assay: SPOT array). Settings: median of control spots 406.

SPOT intensity	Binder
162	KDKSRPPRPPPKPLH
188	ERPKRRAPPPVPKKP
0	PHNPSPFFPPPDFND

These binders were tested against T15, Lsb4, P32793 (assay: SPOT array). Settings: median of control spots 397.

SPOT intensity	Binder
114	KDKSRPPRPPPKPLH
89	ERPKRRAPPPVPKKP
0	PHNPSPFFPPPDFND

These binders were tested against Myo3, P36006 (assay: SPOT array). Settings: median of control spots 468.

SPOT intensity	Binder
104	KDKSRPPRPPPKPLH
358	ERPKRRAPPPVPKKP
319	PHNPSPFFPPPDFND

The binders below were run against T16, Myo5, Q04439 (assay: SPOT array). Settings: median of control spots 471.

SPOT intensity	Binder
10	KDKSRPPRPPPKPLH
180	ERPKRRAPPPVPKKP
244	PHNPSPFFPPPDFND

Each binder was assayed against T17, Nbp2, Q12163 (assay: SPOT array). Settings: median of control spots 357.

SPOT intensity	Binder
2	KDKSRPPRPPPKPLH
58	ERPKRRAPPPVPKKP
0	PHNPSPFFPPPDFND

What follows are binders tested against T18, Pex13, P80667 (assay: SPOT array). Settings: median of control spots 1341.

SPOT intensity	Binder
8	KDKSRPPRPPPKPLH
62	ERPKRRAPPPVPKKP
70	PHNPSPFFPPPDFND

The binders below were run against T19, Pin3, Q06449 (assay: SPOT array). Settings: median of control spots 2171.

SPOT intensity	Binder
0	KDKSRPPRPPPKPLH
11	ERPKRRAPPPVPKKP
0	PHNPSPFFPPPDFND

The binders below were run against Rvs167, P39743 (assay: SPOT array). Settings: median of control spots 2707.
Sequence of Rvs167, P39743 (P39743 419-482): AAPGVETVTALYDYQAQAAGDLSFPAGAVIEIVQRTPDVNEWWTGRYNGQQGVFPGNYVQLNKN

SPOT intensity	Binder
0	KDKSRPPRPPPKPLH
10	ERPKRRAPPPVPKKP
0	PHNPSPFFPPPDFND

What follows are binders tested against Sho1, P40073 (assay: SPOT array). Settings: median of control spots 1148.
Sequence of Sho1, P40073 (P40073 287-367): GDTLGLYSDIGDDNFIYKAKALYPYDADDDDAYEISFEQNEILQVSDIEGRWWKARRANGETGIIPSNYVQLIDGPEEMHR

SPOT intensity	Binder
202	KDKSRPPRPPPKPLH
311	ERPKRRAPPPVPKKP
0	PHNPSPFFPPPDFND

These binders were tested against T20, Sla1-2, P32790 (assay: SPOT array). Settings: median of control spots 712.

SPOT intensity	Binder
0	KDKSRPPRPPPKPLH
0	ERPKRRAPPPVPKKP
0	PHNPSPFFPPPDFND

Each binder was assayed against T21, Sla1-3, P32790 (assay: SPOT array). Settings: median of control spots 5475.

SPOT intensity	Binder
1	KDKSRPPRPPPKPLH
2610	ERPKRRAPPPVPKKP
0	PHNPSPFFPPPDFND
